Data as given in patent US7094873.

How the values were obtained:
[1] = target: Hsp90 in rabbit reticulocyte lysate (Hsp90 heterocomplex) (rabbit) (UniProt P30947); assay: rabbit reticulocyte lysate with recombinant CHIP, immunoprecipitation of Hsp90 with 3G3, Western blot; displaced molecule: Hop
[2] = target: Hsp90 in rabbit reticulocyte lysate (Hsp90 heterocomplex) (rabbit) (UniProt P30947); assay: reticulocyte lysate with 35S-labeled GR, with or without CHIP, immunoprecipitation of Hsp90 with 3G3; displaced molecule: GR

Hsp90 in rabbit reticulocyte lysate (Hsp90 heterocomplex) (rabbit), sequence (P30947 2-726, one chain of several): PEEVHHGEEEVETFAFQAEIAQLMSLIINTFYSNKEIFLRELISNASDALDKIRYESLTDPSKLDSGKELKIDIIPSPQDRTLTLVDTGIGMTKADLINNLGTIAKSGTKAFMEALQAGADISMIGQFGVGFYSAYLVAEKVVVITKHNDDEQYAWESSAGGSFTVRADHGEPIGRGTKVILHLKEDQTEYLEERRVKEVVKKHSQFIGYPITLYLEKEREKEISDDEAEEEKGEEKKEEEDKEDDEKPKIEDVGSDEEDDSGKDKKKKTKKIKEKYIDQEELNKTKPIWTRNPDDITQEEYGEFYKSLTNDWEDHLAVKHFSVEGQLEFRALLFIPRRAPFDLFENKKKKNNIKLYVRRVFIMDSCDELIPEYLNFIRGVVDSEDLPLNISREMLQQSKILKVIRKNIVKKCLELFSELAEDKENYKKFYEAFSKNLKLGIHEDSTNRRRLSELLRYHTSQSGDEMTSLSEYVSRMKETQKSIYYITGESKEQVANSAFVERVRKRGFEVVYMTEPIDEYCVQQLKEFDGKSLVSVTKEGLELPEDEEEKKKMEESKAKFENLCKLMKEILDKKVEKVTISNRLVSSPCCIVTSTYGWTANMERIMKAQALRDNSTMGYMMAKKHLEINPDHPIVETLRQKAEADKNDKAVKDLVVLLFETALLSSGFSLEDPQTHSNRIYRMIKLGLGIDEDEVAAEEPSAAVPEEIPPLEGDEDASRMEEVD

- decrease of the amount of Hop associated with the Hsp90 complex [1]: 50%
- decrease of GR co-precipitated with Hsp90 [2]: 50%
Substance: Recombinant hCHIP (His-tagged fusion from plasmid pET-hCHIP, expressed in E. coli BL21) (from UniProt Q9UNE7 1-303)
